Assay results as given in the RNAGym collection of RNA variant scans (doi:10.1093/molbev/msab373).

B1: Azoarcus group I ribozyme (parent)
chain: GUGCCUUGCGCCGGGAAACCACGCAAGGGAUGGUGUCAAAUUCGGCGAAACCUAAGCGCCCGCCCGGGCGUAUGGCAACGCCGAGCCAAGCUUCGGCGCCUGCGCCGAUGAAGGUGUAGAGACUAGACGGCACCCACCUAAGGCAAACGCUAUGGUGAAGGCAUAGUCCAGGGAGUGGCGAAAGUCACACAAACCGG

Variants of: B1
Experiment: reverse-splicing fitness (ratio to wild type); higher = more active; in vitro selection; Mg2+ level not given
Summary of the method: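 An in vitro group I ribozyme library with randomized positions was T7-transcribed and gel-purified. In triplicate, 10 pmol RNA in EPPS pH 7.5 was reacted with 50 pmoles of a 30-nt RNA substrate for 1 h at 37 °C across several added MgCl2 levels (1–48 mM), then stopped with EDTA. Products were reverse transcribed from a substrate-complementary primer, PCR-amplified and sequenced (HiSeq 4000). Fitness is a variant's read proportion after selection over that before, normalised to wild type.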

Variant	reverse-splicing fitness
C82A A111U A145G C150A C169A	0.0117
C82A A111U A145G C150A C169A U176A	0.0197
C82A A111U A145G C150A C169A U176C	0.0242
C82A A111U A145G C150A C169A U176G	0.00853
C82A A111U A145G C150A C169G	0.00916
C82A A111U A145G C150A C169G U176A	0.0183
C82A A111U A145G C150A C169G U176C	0.027
C82A A111U A145G C150A C169G U176G	0.00681
C82A A111U A145G C150A C169U	0.0111
C82A A111U A145G C150A C169U U176A	0.0158
C82A A111U A145G C150A C169U U176C	0.0161
C82A A111U A145G C150A C169U U176G	0.00831
C82A A111U A145G C150A U176A	0.0206
C82A A111U A145G C150A U176C	0.0448
C82A A111U A145G C150A U176G	0.0112
C82A A111U A145G C150G	0.0263
C82A A111U A145G C150G C169A	0.0097
C82A A111U A145G C150G C169A U176A	0.0138
C82A A111U A145G C150G C169A U176C	0.0137
C82A A111U A145G C150G C169A U176G	0.0091
C82A A111U A145G C150G C169G	0.00774
C82A A111U A145G C150G C169G U176A	0.0117
C82A A111U A145G C150G C169G U176C	0.0133
C82A A111U A145G C150G C169G U176G	0.00649

Variant	reverse-splicing fitness
C82A A111U A145G C150G C169U	0.0101
C82A A111U A145G C150G C169U U176A	0.0134
C82A A111U A145G C150G C169U U176C	0.0142
C82A A111U A145G C150G C169U U176G	0.00787
C82A A111U A145G C150G U176A	0.00963
C82A A111U A145G C150G U176C	0.0188
C82A A111U A145G C150G U176G	0.00688
C82A A111U A145G C150U	0.222
C82A A111U A145G C150U C169A	0.0109
C82A A111U A145G C150U C169A U176A	0.016
C82A A111U A145G C150U C169A U176C	0.0162
C82A A111U A145G C150U C169A U176G	0.00694
C82A A111U A145G C150U C169G	0.00968
C82A A111U A145G C150U C169G U176A	0.0134
C82A A111U A145G C150U C169G U176C	0.0194
C82A A111U A145G C150U C169G U176G	0.00676
C82A A111U A145G C150U C169U	0.0139
C82A A111U A145G C150U C169U U176A	0.0147
C82A A111U A145G C150U C169U U176C	0.0148
C82A A111U A145G C150U C169U U176G	0.00683
C82A A111U A145G C150U U176A	0.0694
C82A A111U A145G C150U U176C	0.115
C82A A111U A145G C150U U176G	0.0191
C82A A111U A145G C169A	0.0104

Variant	reverse-splicing fitness
C82A A111U A145G C169A U176A	0.0221
C82A A111U A145G C169A U176C	0.0292
C82A A111U A145G C169A U176G	0.00574
C82A A111U A145G C169G	0.0102
C82A A111U A145G C169G U176A	0.023
C82A A111U A145G C169G U176C	0.0304
C82A A111U A145G C169G U176G	0.00674
C82A A111U A145G C169U	0.0129
C82A A111U A145G C169U U176A	0.0154
C82A A111U A145G C169U U176C	0.0157
C82A A111U A145G C169U U176G	0.00628
C82A A111U A145G U176A	0.0978
C82A A111U A145G U176C	0.151
C82A A111U A145G U176G	0.0224
C82A A111U A145U	0.289
C82A A111U A145U C150A	0.0253
C82A A111U A145U C150A C169A	0.0092
C82A A111U A145U C150A C169A U176A	0.0158
C82A A111U A145U C150A C169A U176C	0.0138
C82A A111U A145U C150A C169A U176G	0.00765
C82A A111U A145U C150A C169G	0.00786
C82A A111U A145U C150A C169G U176A	0.0157
C82A A111U A145U C150A C169G U176C	0.0188
C82A A111U A145U C150A C169G U176G	0.00712

Variant	reverse-splicing fitness
C82A A111U A145U C150A C169U	0.0108
C82A A111U A145U C150A C169U U176A	0.0147
C82A A111U A145U C150A C169U U176C	0.0127
C82A A111U A145U C150A C169U U176G	0.00771
C82A A111U A145U C150A U176A	0.018
C82A A111U A145U C150A U176C	0.0251
C82A A111U A145U C150A U176G	0.00989
C82A A111U A145U C150G	0.0256
C82A A111U A145U C150G C169A	0.00877
C82A A111U A145U C150G C169A U176A	0.0106
C82A A111U A145U C150G C169A U176C	0.0109
C82A A111U A145U C150G C169A U176G	0.00651
C82A A111U A145U C150G C169G	0.00819
C82A A111U A145U C150G C169G U176A	0.00742
C82A A111U A145U C150G C169G U176C	0.00625
C82A A111U A145U C150G C169G U176G	0.00651
C82A A111U A145U C150G C169U	0.00971
C82A A111U A145U C150G C169U U176A	0.00775
C82A A111U A145U C150G C169U U176C	0.0122
C82A A111U A145U C150G C169U U176G	0.00727
C82A A111U A145U C150G U176A	0.01
C82A A111U A145U C150G U176C	0.0189
C82A A111U A145U C150G U176G	0.00528
C82A A111U A145U C150U	0.181

Variant	reverse-splicing fitness
C82A A111U A145U C150U C169A	0.00985
C82A A111U A145U C150U C169A U176A	0.0148
C82A A111U A145U C150U C169A U176C	0.0108
C82A A111U A145U C150U C169A U176G	0.00727
C82A A111U A145U C150U C169G	0.00969
C82A A111U A145U C150U C169G U176A	0.0142
C82A A111U A145U C150U C169G U176C	0.0156
C82A A111U A145U C150U C169G U176G	0.00663
C82A A111U A145U C150U C169U	0.0124
C82A A111U A145U C150U C169U U176A	0.0147
C82A A111U A145U C150U C169U U176C	0.0143
C82A A111U A145U C150U C169U U176G	0.00717
C82A A111U A145U C150U U176A	0.0636
C82A A111U A145U C150U U176C	0.0933
C82A A111U A145U C150U U176G	0.0184
C82A A111U A145U C169A	0.00911
C82A A111U A145U C169A U176A	0.012
C82A A111U A145U C169A U176C	0.0114
C82A A111U A145U C169A U176G	0.00655
C82A A111U A145U C169G	0.00938
C82A A111U A145U C169G U176A	0.0127
C82A A111U A145U C169G U176C	0.0142
C82A A111U A145U C169G U176G	0.00625
C82A A111U A145U C169U	0.0125

Variant	reverse-splicing fitness
C82A A111U A145U C169U U176A	0.0142
C82A A111U A145U C169U U176C	0.0139
C82A A111U A145U C169U U176G	0.00541
C82A A111U A145U U176A	0.0937
C82A A111U A145U U176C	0.134
C82A A111U A145U U176G	0.0281
C82A A111U C150A	0.0266
C82A A111U C150A C169A	0.0117
C82A A111U C150A C169A U176A	0.0188
C82A A111U C150A C169A U176C	0.0197
C82A A111U C150A C169A U176G	0.00811
C82A A111U C150A C169G	0.00884
C82A A111U C150A C169G U176A	0.0202
C82A A111U C150A C169G U176C	0.0266
C82A A111U C150A C169G U176G	0.00794
C82A A111U C150A C169U	0.0125
C82A A111U C150A C169U U176A	0.0167
C82A A111U C150A C169U U176C	0.0171
C82A A111U C150A C169U U176G	0.00835
C82A A111U C150A U176A	0.0197
C82A A111U C150A U176C	0.0292
C82A A111U C150A U176G	0.00995
C82A A111U C150G	0.0198
C82A A111U C150G C169A	0.00953

Variant	reverse-splicing fitness
C82A A111U C150G C169A U176A	0.0116
C82A A111U C150G C169A U176C	0.0105
C82A A111U C150G C169A U176G	0.00757
C82A A111U C150G C169G	0.00756
C82A A111U C150G C169G U176A	0.00782
C82A A111U C150G C169G U176C	0.00482
C82A A111U C150G C169G U176G	0.00641
C82A A111U C150G C169U	0.0101
C82A A111U C150G C169U U176A	0.00699
C82A A111U C150G C169U U176C	0.0139
C82A A111U C150G C169U U176G	0.00599
C82A A111U C150G U176A	0.00718
C82A A111U C150G U176C	0.015
C82A A111U C150G U176G	0.00369
C82A A111U C150U	0.135
C82A A111U C150U C169A	0.0102
C82A A111U C150U C169A U176A	0.0158
C82A A111U C150U C169A U176C	0.015
C82A A111U C150U C169A U176G	0.00786
C82A A111U C150U C169G	0.0102
C82A A111U C150U C169G U176A	0.0151
C82A A111U C150U C169G U176C	0.0182
C82A A111U C150U C169G U176G	0.00649
